Paper PMC4167889 (Molecular cell, 2009)

B1: recombinant wild-type p105, His-tagged (E. coli) (natural protein, UniProt P25799-1 1-971, looked up)
chain: MADDDPYGTGQMFHLNTALTHSIFNAELYSPEIPLSTDGPYLQILEQPKQRGFRFRYVCEGPSHGGLPGASSEKNKKSYPQVKICNYVGPAKVIVQLVTNGKNIHLHAHSLVGKHCEDGVCTVTAGPKDMVVGFANLGILHVTKKKVFETLEARMTEACIRGYNPGLLVHSDLAYLQAEGGGDRQLTDREKEIIRQAAVQQTKEMDLSVVRLMFTAFLPDSTGSFTRRLEPVVSDAIYDSKAPNASNLKIVRMDRTAGCVTGGEEIYLLCDKVQKDDIQIRFYEEEENGGVWEGFGDFSPTDVHRQFAIVFKTPKYKDVNITKPASVFVQLRRKSDLETSEPKPFLYYPEIKDKEEVQRKRQKLMPNFSDSFGGGSGAGAGGGGMFGSGGGGGSTGSPGPGYGYSNYGFPPYGGITFHPGVTKSNAGVTHGTINTKFKNGPKDCAKSDDEESLTLPEKETEGEGPSLPMACTKTEPIALASTMEDKEQDMGFQDNLFLEKALQLARRHANALFDYAVTGDVKMLLAVQRHLTAVQDENGDSVLHLAIIHLHAQLVRDLLEVTSGLISDDIINMRNDLYQTPLHLAVITKQEDVVEDLLRVGADLSLLDRWGNSVLHLAAKEGHDRILSILLKSRKAAPLIDHPNGEGLNAIHIAVMSNSLPCLLLLVAAGAEVNAQEQKSGRTALHLAVEYDNISLAGCLLLEGDAHVDSTTYDGTTPLHIAAGRGSTRLAALLKAAGADPLVENFEPLYDLDDSWEKAGEDEGVVPGTTPLDMAANWQVFDILNGKPYEPVFTSDDILPQGDMKQLTEDTRLQLCKLLEIPDPDKNWATLAQKLGLGILNNAFRLSPAPSKTLMDNYEVSGGTIKELMEALQQMGYTEAIEVIQAAFRTPATTASSPVTTAQVHCLPLSSSSTRQHIDELRDSDSVCDSGVETSFRKLSFTESLTGDSPLLSLNKMPHGYGQEGPIEGKI

Assays:
[1] = target: recombinant wild-type p105, His-tagged (E. coli) (UniProt P25799); assay: SEC
[2] = target: the molecule itself; assay: AUC

| Molecule | stoichiometry N [1] | stoichiometry N [2] |
| --- | --- | --- |
| p50, the 50 kD N-terminal product of recombinant p105 (E. coli) (domain or fragment) | 1 | – |
| B1 | – | 2 |
